In data set [1] the target is T1, OML4 full-length protein, yeast two-hybrid bait (OML4 cDNA in pGBKT7) (rice, UniProt Q64M78 1-1001).
T1 construct: Expressed in yeast cells; also called Mei2-Like protein 4; LARGE1; not shown: fusion partner encoded by vector pGBKT7
T1 sequence: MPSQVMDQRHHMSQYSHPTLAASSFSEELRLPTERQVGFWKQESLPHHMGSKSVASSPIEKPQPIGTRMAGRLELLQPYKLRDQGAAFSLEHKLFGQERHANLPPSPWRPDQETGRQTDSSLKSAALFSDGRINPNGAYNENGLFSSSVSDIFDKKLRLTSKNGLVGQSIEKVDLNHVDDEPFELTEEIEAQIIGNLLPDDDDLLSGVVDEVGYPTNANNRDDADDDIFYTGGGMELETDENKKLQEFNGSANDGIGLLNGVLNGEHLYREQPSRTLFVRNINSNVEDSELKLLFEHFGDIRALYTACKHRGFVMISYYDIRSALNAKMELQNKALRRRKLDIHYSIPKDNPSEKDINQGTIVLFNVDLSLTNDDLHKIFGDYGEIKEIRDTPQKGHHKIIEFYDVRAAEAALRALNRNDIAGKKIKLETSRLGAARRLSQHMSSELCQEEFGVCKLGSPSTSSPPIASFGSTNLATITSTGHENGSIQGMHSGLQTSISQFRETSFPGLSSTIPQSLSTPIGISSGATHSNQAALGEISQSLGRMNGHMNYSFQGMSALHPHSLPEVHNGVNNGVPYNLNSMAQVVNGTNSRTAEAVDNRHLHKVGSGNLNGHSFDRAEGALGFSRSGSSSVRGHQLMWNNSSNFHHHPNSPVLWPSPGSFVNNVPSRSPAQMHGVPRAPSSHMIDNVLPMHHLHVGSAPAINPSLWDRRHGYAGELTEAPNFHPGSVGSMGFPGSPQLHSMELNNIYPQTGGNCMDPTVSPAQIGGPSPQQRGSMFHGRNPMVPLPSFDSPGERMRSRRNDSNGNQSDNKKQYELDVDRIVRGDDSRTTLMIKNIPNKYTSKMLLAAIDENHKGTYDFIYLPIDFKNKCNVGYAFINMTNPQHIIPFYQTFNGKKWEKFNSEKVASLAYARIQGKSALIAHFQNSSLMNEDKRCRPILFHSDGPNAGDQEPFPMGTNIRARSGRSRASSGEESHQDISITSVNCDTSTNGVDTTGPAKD
Kind of data set: yeast two-hybrid, OML4 full-length protein as bait. From the text:
To further understand the molecular role of OML4 in grain growth control, we identified its interacting partners through a yeast two-hybrid (Y2H) assay. The OML4 full-length protein was used as the bait. Among several interacting proteins, six different clones corresponding to GSK2 were found in this screen. […] We further confirmed the interaction of OML4 with the full length GSK2 in yeast cells (FIG. 5A).
The cDNA sequences of GSK2 and OML4 were amplified using gene-specific primers (Table S4), and products were fused into the linearized pGADT7 and pGBKT7 vectors, respectively. Yeast two-hybrid analysis was conducted according to the manufacturer's instruction (Clontech, USA).

In a further data set the target is T2, recombinant OML4.
T2 chain: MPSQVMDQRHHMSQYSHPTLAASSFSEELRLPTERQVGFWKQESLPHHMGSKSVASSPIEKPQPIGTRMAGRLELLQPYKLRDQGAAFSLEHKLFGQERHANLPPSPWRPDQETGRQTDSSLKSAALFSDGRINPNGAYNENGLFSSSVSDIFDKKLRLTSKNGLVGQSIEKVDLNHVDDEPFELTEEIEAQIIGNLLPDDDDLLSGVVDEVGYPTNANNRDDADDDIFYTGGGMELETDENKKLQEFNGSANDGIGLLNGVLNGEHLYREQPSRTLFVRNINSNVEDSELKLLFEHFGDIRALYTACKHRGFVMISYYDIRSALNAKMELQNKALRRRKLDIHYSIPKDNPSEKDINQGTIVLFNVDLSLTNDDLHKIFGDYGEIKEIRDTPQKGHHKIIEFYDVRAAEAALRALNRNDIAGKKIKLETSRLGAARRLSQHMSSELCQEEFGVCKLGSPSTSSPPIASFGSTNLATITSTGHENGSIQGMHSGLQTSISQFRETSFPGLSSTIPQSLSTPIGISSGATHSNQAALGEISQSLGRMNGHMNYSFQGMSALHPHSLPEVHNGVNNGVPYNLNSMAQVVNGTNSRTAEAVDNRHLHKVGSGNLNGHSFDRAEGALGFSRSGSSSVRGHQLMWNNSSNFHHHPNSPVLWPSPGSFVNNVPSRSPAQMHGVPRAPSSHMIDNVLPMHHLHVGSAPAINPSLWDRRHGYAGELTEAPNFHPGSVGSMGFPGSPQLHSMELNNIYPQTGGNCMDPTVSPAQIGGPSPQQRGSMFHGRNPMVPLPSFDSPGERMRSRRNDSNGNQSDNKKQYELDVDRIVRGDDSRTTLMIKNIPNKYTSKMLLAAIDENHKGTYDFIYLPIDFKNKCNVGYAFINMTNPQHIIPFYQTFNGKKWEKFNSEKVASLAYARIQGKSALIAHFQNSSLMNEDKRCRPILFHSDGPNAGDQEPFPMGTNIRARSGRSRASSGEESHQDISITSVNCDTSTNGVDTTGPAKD

The next data set deals with T3, OML4-cYFP (rice, UniProt Q64M78 1-1001).
T3 construct: Transiently expressed in N. benthamiana leaves; Order of the pieces follows the printed name; also called OML4 fused with the C-terminus of the yellow fluorescent protein; not shown: C-terminus of the yellow fluorescent protein (cYFP, vector pGBW414-cYFP)
T3 sequence: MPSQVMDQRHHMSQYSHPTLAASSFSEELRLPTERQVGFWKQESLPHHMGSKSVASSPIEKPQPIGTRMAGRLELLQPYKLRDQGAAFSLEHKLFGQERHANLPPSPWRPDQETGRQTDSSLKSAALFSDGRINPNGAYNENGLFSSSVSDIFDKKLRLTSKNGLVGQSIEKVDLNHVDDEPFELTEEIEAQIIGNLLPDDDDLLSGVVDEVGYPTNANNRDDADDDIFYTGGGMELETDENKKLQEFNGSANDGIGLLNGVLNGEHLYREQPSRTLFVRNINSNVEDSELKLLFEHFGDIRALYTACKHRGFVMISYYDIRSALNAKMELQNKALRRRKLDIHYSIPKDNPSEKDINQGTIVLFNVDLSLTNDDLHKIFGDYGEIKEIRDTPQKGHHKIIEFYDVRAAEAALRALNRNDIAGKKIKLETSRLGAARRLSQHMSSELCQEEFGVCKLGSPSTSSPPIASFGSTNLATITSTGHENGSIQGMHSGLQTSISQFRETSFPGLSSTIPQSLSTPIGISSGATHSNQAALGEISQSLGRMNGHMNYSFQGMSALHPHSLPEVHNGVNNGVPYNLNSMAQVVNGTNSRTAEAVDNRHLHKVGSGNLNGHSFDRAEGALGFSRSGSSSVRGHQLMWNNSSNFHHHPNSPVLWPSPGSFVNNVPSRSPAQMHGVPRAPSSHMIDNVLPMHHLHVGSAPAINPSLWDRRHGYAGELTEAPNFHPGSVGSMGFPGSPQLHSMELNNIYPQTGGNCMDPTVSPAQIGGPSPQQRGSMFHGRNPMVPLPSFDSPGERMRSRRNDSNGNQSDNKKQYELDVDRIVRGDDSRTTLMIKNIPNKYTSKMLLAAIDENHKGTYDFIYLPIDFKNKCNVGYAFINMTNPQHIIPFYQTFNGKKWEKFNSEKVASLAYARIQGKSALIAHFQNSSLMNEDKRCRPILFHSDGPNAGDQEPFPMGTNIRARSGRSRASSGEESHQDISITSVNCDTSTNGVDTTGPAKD
Kind of data set: bimolecular fluorescence complementation (BiFC), confocal microscopy. The protocol:
(A) OML4 interacts with GSK2 in yeast cells. Yeast cells were cultured on SD/-Trp-Leu or SD/-Trp-Leu-His-Ade media. (B) OML4 associates with GSK2 in N. benthamiana. OML4-nLUC and GSK2-cLUC were co-expressed in N. benthamiana leaves. Luciferase activity was observed 48 hours after infiltration. The range of luminescence intensity was scaled by the pseudocolor bar. (C) Bimolecular fluorescence complementation (BiFC) assays shown that OML4 interacts with GSK2 in N. benthamiana. OML4-cYFP was coexpressed with GSK2-nYFP in leaves of N. benthamiana. (D) OML4 binds GSK2 in vitro. GSK2-GST was incubated with OML4-MBP and pulled down by OML4-MBP and detected by immunoblot with anti-GST antibody. IB: immunoblot. (E) Interaction between OML4 and GSK2 in the Co-IP assays. Anti-MYC beads were used to immunoprecipitate GSK2-GFP proteins. Gel blots were probed with anti-MYC or anti-GFP antibody. Bars: 50 μm in C.
We next verified the interaction between OML4 and GSK2 in plant cells using the firefly luciferase (LUC) complementation imaging assay (FIG. 5B). The OML4-nLUC and GSK2-cLUC were transformed and co-expressed in N. benthamiana leaves. […] We then performed bimolecular fluorescence complementation (BiFC) assay to test the interaction between OML4 and GSK2 in plant cells (FIG. 5C). […]

B1: full length GSK2, yeast two-hybrid prey (GSK2 cDNA in pGADT7) (enzyme)
chain: MDQPAPAPEPMLLDAQPPAAVACDKKQQEGEAPYAEGNDAVTGHIISTTIGGKNGEPKRTISYMAERVVGTGSFGIVFQAKCLETGETVAIKKVLQDRRYKNRELQLMRAMDHPNVISLKHCFFSTTSRDELFLNLVMEYVPETLYRVLKHYSNANHRMPLIYVKLYMYQLFRGLAYIHTVPGVCHRDVKPQNVLVDPLTHQVKLCDFGSAKTLVPGEPNISYICSRYYRAPELIFGATEYTTSIDIWSAGCVLAELLLGQPLFPGESAVDQLVEIIKVLGTPTREEIRCMNPNYTEFRFPQIKAHPWHKVFHKRMPPEAIDLASRLLQYSPSLRCTALDACAHPFFDELREPNARLPNGRPFPPLFNFKHELANSSQELISRLIPEHVRRQATHNFFNTGS
notes: Expressed in yeast cells; The six GSK2 clones found in the first screen are not described further; also called glycogen synthase kinase 2; SHAGGY-like kinase; not shown: fusion partner encoded by vector pGADT7
Consider B1, for which, in data set [1], the binding result is “binds”.

B2: recombinant GSK2 (protein)
chain: MDQPAPAPEPMLLDAQPPAAVACDKKQQEGEAPYAEGNDAVTGHIISTTIGGKNGEPKRTISYMAERVVGTGSFGIVFQAKCLETGETVAIKKVLQDRRYKNRELQLMRAMDHPNVISLKHCFFSTTSRDELFLNLVMEYVPETLYRVLKHYSNANHRMPLIYVKLYMYQLFRGLAYIHTVPGVCHRDVKPQNVLVDPLTHQVKLCDFGSAKTLVPGEPNISYICSRYYRAPELIFGATEYTTSIDIWSAGCVLAELLLGQPLFPGESAVDQLVEIIKVLGTPTREEIRCMNPNYTEFRFPQIKAHPWHKVFHKRMPPEAIDLASRLLQYSPSLRCTALDACAHPFFDELREPNARLPNGRPFPPLFNFKHELANSSQELISRLIPEHVRRQATHNFFNTGS
In the case of B2, in the data set with recombinant OML4, the “phosphopeptides of OML4 found by LC-MS/MS after in vitro kinase reaction” value is given as “We identified 18 phosphopeptides of OML4, which correspond to 14 phosphosites” and the “phosphosites of OML4 found by LC-MS/MS after in vitro kinase reaction” value is reported as “We identified 18 phosphopeptides of OML4, which correspond to 14 phosphosites”.

B3: GSK2-nYFP (enzyme)
chain: MDQPAPAPEPMLLDAQPPAAVACDKKQQEGEAPYAEGNDAVTGHIISTTIGGKNGEPKRTISYMAERVVGTGSFGIVFQAKCLETGETVAIKKVLQDRRYKNRELQLMRAMDHPNVISLKHCFFSTTSRDELFLNLVMEYVPETLYRVLKHYSNANHRMPLIYVKLYMYQLFRGLAYIHTVPGVCHRDVKPQNVLVDPLTHQVKLCDFGSAKTLVPGEPNISYICSRYYRAPELIFGATEYTTSIDIWSAGCVLAELLLGQPLFPGESAVDQLVEIIKVLGTPTREEIRCMNPNYTEFRFPQIKAHPWHKVFHKRMPPEAIDLASRLLQYSPSLRCTALDACAHPFFDELREPNARLPNGRPFPPLFNFKHELANSSQELISRLIPEHVRRQATHNFFNTGS
notes: Transiently expressed in N. benthamiana leaves; Order of the pieces follows the printed name; also called GSK2 fused with the N-terminus of the yellow fluorescent protein; not shown: N-terminus of the yellow fluorescent protein (nYFP, vector pGBW414-nYFP)
For the molecule B3, the binding result with OML4-cYFP is reported as “binds”.

The record behind these values is patent US20230081195A1 (INSTITUTE OF GENETICS AND DEVELOPMENT BIOLOGY CHINESE …, published 2023).
